Source: patent US20040208877A1

Tests used:
[1] = target: PSGL-1 (P-Selectin Glycoprotein Ligand-1) (human) (UniProt Q14242); assay: FACS competition on ML2 cells, 200 ng KPL-1, competitor IgG Y1-PE
[2] = target: PSGL-1 (P-Selectin Glycoprotein Ligand-1) (human) (UniProt Q14242); assay: FACS, PE-labeled KPL-1 on ML2 cells

Sequence of UniProt Q14242 (Q14242 42-412): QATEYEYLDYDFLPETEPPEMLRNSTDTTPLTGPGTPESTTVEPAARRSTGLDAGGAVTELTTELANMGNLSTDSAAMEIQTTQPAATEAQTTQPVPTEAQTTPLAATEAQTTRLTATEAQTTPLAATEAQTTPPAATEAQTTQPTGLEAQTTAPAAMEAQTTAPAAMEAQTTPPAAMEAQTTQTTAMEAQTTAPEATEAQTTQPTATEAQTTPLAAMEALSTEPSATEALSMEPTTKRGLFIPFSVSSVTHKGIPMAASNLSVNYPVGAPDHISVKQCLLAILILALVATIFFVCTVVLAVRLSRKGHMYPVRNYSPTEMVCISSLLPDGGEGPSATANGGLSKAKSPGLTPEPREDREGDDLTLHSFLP

Median (Geo mean) of IgG Y1-PE binding [1]: 2 geo mean
Percent Inhibition [1]: 100%
Median (Geo mean) [2]: 700 geo mean
Substance: KPL-1 (commercially available murine monoclonal antibody against PSGL1)
